The record followed here is the supplement of paper PMC10567573.

A short description of the data set: protein stability index of a GFP-peptide fusion (GPS, HEK-293T) (PSI 1-6); higher = more stable.
[1] abbreviates: treatment: DMSO, c terminus: a fixed tail appended.
Setting [2] is: treatment: MLN4924 1 uM, 8 h, c terminus: a fixed tail appended.

± gives the standard deviation.
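Further: 24-mer peptide tiles fused after GFP, lentivirally expressed, FACS-sorted into six equal bins by GFP/DsRed ratio, decoded by Illumina sequencing, PSI is the read-weighted mean bin number.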

SLDKVQRSLGPRAPSLRRHVLIHN [SERTAD3] yielded a protein stability index under setting [1] of 3.02 ± 0.32 and a protein stability index under setting [2] of 2.96 ± 0.29.
On the same counts, the results for LPELKANPFKERICRVFSTSPAKD [CIB1] are 3.46 ± 0.08 and 3.58 ± 0.2.
In the same order, the values of NLLPAAGELQESGLALCPEVQDLL [SMG5] are 4.26 ± 0.21 and 4.31 ± 0.13.
In the same order, the values of RELGVWRSLLRLRATRAGAAEEPG [C2CD2L] are 3.15 ± 0.24 and 3.27 ± 0.33.
As to MYKLSSEQFHEAASKMESTIKPRR [CHCHD6], the protein stability index was 3.72 ± 0.53 under setting [1] and 4.07 ± 0.64 under setting [2].
On to YPGIRAGRKNAAPLTIRPPTDWE [TRIM39], for which the protein stability index was 3.44 ± 0.31 (treatment: DMSO, c terminus: native) and 3.9 ± 0.36 (treatment: MLN4924 1 uM, 8 h, c terminus: native).
Regarding PPPPPPHNSGPPPPPARGRGAPPP [WASL], the protein stability index came out at 5.14 ± 0.2 under setting [1] and 5.19 ± 0.16 under setting [2].
HSLVRSRHRIPEPEAAVLFRQMAT [TRIB3] registered a protein stability index under setting [1] of 3.18 ± 0.13 and a protein stability index under setting [2] of 3.31 ± 0.15.
For the sequence QIQRISLNTLTLNVKSEKVYTRHG [FLOT1], the protein stability index was determined as 2.6 ± 0.14 under setting [1] and 3.01 ± 0.25 under setting [2].
KKEESGRERKKNWGGQEDREPAGR [PBXIP1]: the protein stability index was found to be 5.16 ± 0.14 under setting [1] and 5.33 ± 0.26 under setting [2].
On to KVKRSLRQARKKGRHLELANQKLS [CCDC3], for which the protein stability index runs as follows: under setting [1], 4 ± 0.26; under setting [2], 4.39 ± 0.45.
With PQAPPASRDEAALPELLLGALPVG [RETREG3], the protein stability index reads like this: under setting [1], 4.64 ± 0.087; under setting [2], 4.67 ± 0.16.
The sequence ADAAEDEEVDVTSVDPIAAFCSSD [RBBP5] returned a protein stability index under setting [1] of 5.57 ± 0.2 and a protein stability index under setting [2] of 5.55 ± 0.2.
Consider VGIFHLMQIAVPCAFLLLRLLVGL [TMEM175], for which the protein stability index by setting is: under setting [1], 2.81 ± 0.45; under setting [2], 2.82 ± 0.47.
On the same counts, the results for RRLRGEQRGQEPLGPGALHFDLRD [TCF25] are 4.24 ± 0.22 and 4.43 ± 0.21.
For the sequence ENHSMYCVQCKMPVCYQCLEEGKH [TRIM9], the protein stability index is 4.07 ± 0.2 under setting [1] and 4.36 ± 0.41 under setting [2].
In the case of FRKDSVLNILIQSLDWETFEQYCA [INTS3], the protein stability index was determined as 2.51 ± 0.61 under setting [1] and 2.04 ± 0.18 under setting [2].
For TDYINASFMDGYKQKNAYIGTQGP [PTPN9], the protein stability index under setting [1] came out at 2.94 ± 0.24 and the protein stability index under setting [2] was found to be 3.21 ± 0.21.
Consider RVRGRVGTIRPVRCPSSSLHMSQR [C22orf15], for which the protein stability index reads like this: under setting [1], 3.14 ± 0.28; under setting [2], 3.57 ± 0.19.
Take PAPATQMPSTPGFVGYNPYSHLAY [SMARCE1]: the protein stability index was 2.37 ± 0.21 under setting [1] and 2.44 ± 0.27 under setting [2].
Take IDNAADLLIFGKELSAIGSDTTPL [SNX8]: the protein stability index by setting is: under setting [1], 3.22 ± 0.12; under setting [2], 3.18 ± 0.48.
The sequence GQLVRNDSLWHRSDSAPRNKISRF [MFF] gave a protein stability index under setting [1] of 3.66 ± 0.87 and a protein stability index under setting [2] of 4.04 ± 0.21.
Consider FFLKHPDKDVRLLVACCLADIFRI [PDS5B], for which the protein stability index under setting [1] was found to be 2.95 ± 0.81 and the protein stability index under setting [2] is 2.75 ± 0.17.
In the same order, the values of ISPGRVYEYTSCTTFSTTSGYMEG [FBXO3] are 2.78 ± 0.22 and 2.69 ± 0.36.
On the same counts, the results for ATYRSLLEGQDAKMIGFPSSAGSV [KRT13] are 3.22 ± 0.4 and 3.54 ± 0.24.
For the sequence LYPFQIHSIALSTFASLIGPFGGF [CDS1], the protein stability index came to 3.36 ± 0.62 under setting [1] and 3.09 ± 0.36 under setting [2].
With AKQRAKEAQERELRKREKAEEKER [LRRC59], the protein stability index is, setting by setting: under setting [1], 5.45 ± 0.14; under setting [2], 5.52 ± 0.36.
In the same order, the values of KLDTKYPYVCHAELNAIMNKNSTD [DCTD] are 3.52 ± 0.18 and 3.42 ± 0.11.
For the sequence QFSLMLCAFVGALGGAAFLGTAIF [SPNS1], the protein stability index stood at 2.81 ± 0.47 under setting [1] and 2.47 ± 0.41 under setting [2].
In turn, IDKSMTVVLTFITPMLNPLIYTLK [OR4A15] came in with a protein stability index under setting [1] of 3.67 ± 0.16 and a protein stability index under setting [2] of 2.8 ± 1.
Turning to CWDMQGKRFVAMKVVKSAQHYTET [SRPK2], the protein stability index under setting [1] is 2.34 ± 0.34 and the protein stability index under setting [2] amounted to 2.54 ± 0.3.
GKDHEILRRRIENGAKELWFFLQS [FUT8]: the protein stability index runs as follows: under setting [1], 2.08 ± 0.65; under setting [2], 2.36 ± 0.27.
Take RVAAAAGSGPSPPGSPGHDRERQP [PI4K2A]: the protein stability index was found to be 5.31 ± 0.5 under setting [1] and 5.42 ± 0.27 under setting [2].
In the same order, the values of DFEFLAFWQTQYNNMNAVNLFFAW [PKD2L1] are 3.17 ± 0.5 and 2.93 ± 0.55.
On to SPRSTSVTTTSSASVTTTSNASGR [KRT13], for which the protein stability index reads like this: under setting [1], 5.31 ± 0.2; under setting [2], 5.32 ± 0.12.
With QPILQIDNARLAADDFRTKYEHEL [KRT16], the protein stability index runs as follows: under setting [1], 4.6 ± 0.2; under setting [2], 4.31 ± 0.45.
Consider ETDVWFSKQRKDFEGMAFLETEQG [GMCL1], for which the protein stability index under setting [1] came out at 4.12 ± 0.62 and the protein stability index under setting [2] came out at 4.45 ± 0.16.
Regarding PVEEPEPKPDRLLVLKVLWNDFLM [SLC19A2], the protein stability index is, setting by setting: under setting [1], 2.21 ± 0.2; under setting [2], 2.17 ± 0.19.
DKNRCELLSFLLLMDYIGINLATM [EDNRA]: the protein stability index under setting [1] is 2.77 ± 0.49 and the protein stability index under setting [2] was found to be 2.92 ± 0.32.
Regarding RATNHLDQVPSMQDGSESFFFRHG [SPAG8], the protein stability index came out at 3.51 ± 0.1 under setting [1] and 3.62 ± 0.28 under setting [2].
Regarding EERALLLGRMGKHEQALFIYVHIL [VPS39], the protein stability index under setting [1] was 2.96 ± 0.41 and the protein stability index under setting [2] was found to be 2.68 ± 0.51.
In the same order, the values of SPWADGTPCGPAQACMGGRCLHMD [ADAMTS4] are 4.28 ± 0.21 and 4.47 ± 0.36.
For EEVSTLNAQIPELKSDLEKASALN [CD207], the protein stability index was 5.08 ± 0.19 under setting [1] and 5.24 ± 0.17 under setting [2].
Regarding SLLSKARGIDSSSVKLRGSSLFMD [WEE1], the protein stability index was found to be 2.75 ± 0.2 under setting [1] and 2.49 ± 0.19 under setting [2].
TSGKRYVYRFVCDLQNLLGFTPEE [ETS2] had a protein stability index under setting [1] of 2.56 ± 0.63 and a protein stability index under setting [2] of 2.89 ± 0.84.
Turning to RYHRFISFALYLAGFCMFVLSLVK [CDS1], the protein stability index is, setting by setting: under setting [1], 2.02 ± 0.21; under setting [2], 2.08 ± 0.44.
With CKDSESNKHLCYVFDSEKCVSIPD [GULP1], the protein stability index is 3.27 ± 0.11 under setting [1] and 3.41 ± 0.35 under setting [2].
In the case of SFWNDCISSGLRGCMLIELALRGR [GOLPH3], the protein stability index turned out to be 2.71 ± 0.35 under setting [1] and 2.66 ± 0.75 under setting [2].
The sequence ESILMSLPLTARWEYMHSPSENSK [CPOX] gave a protein stability index under setting [1] of 3.45 ± 0.57 and a protein stability index under setting [2] of 3.93 ± 0.33.
As to LFQTHENREHLVMMEKILGPIPSH [CLK3], the protein stability index is 2.85 ± 0.3 under setting [1] and 3.1 ± 0.15 under setting [2].
Turning to EGHHHDVVACDFSPDGALLATASY [WSB1], the protein stability index runs as follows: under setting [1], 3.9 ± 0.23; under setting [2], 4.03 ± 0.18.
With TSRAPSTYTYTSRPRALPCQRSRY [RSPH3], the protein stability index by setting is: under setting [1], 3.65 ± 0.15; under setting [2], 3.84 ± 0.31.
KLNLCEDGPCHKRRASICCTQLGS [SCARA5]: the protein stability index under setting [1] worked out at 3.12 ± 0.2 and the protein stability index under setting [2] was 3.3 ± 0.27.
On to PGSASLAQSRLEDPGQDLVPKQAI [DLX1], for which the protein stability index by setting is: under setting [1], 4.83 ± 0.48; under setting [2], 5 ± 0.34.
Turning to KTIEDLRNKIIAATIENAQPILQI [KRT16], the protein stability index came out at 2.36 ± 0.25 under setting [1] and 2.33 ± 0.1 under setting [2].
For the sequence LEDLKDQIAQLEASLAAAKKQLAD [LMNB1], the protein stability index is, setting by setting: under setting [1], 5.3 ± 0.12; under setting [2], 5.21 ± 0.15.
Consider NLVARHPLFSEDVVLKLFLSFSGS [SNX8], for which the protein stability index stood at 2.7 ± 0.58 under setting [1] and 2.33 ± 0.2 under setting [2].
For the sequence MTVKPAKAASLARNLAKRRRTYLG [RSPH3], the protein stability index by setting is: under setting [1], 3.16 ± 0.3; under setting [2], 3.6 ± 0.3.
On the same counts, the results for MTSLTQRSSGLVQRRTEASRNAAD [GOLPH3] are 4.89 ± 0.27 and 5.03 ± 0.19.
On the same counts, the results for QAGGEGAGGELGISLNMCLLGALV [PBXIP1] are 2.92 ± 0.65 and 2.23 ± 0.33.
For SGFSARERLERAVSDRLAPGAPRG [MYCL], the protein stability index runs as follows: under setting [1], 4.13 ± 0.3; under setting [2], 4.16 ± 0.2.
CVATTGDITVSVSTSFLPELSSVH [FBXO3] gave a protein stability index under setting [1] of 2.23 ± 0.27 and a protein stability index under setting [2] of 2.14 ± 0.23.
Consider RAFVSIQEEMAEDPLTYKSRLMVV [RHOBTB2], for which the protein stability index came out at 2.74 ± 0.39 under setting [1] and 2.18 ± 0.4 under setting [2].
In the case of KENPECPVLKRSSESMENINSGYE [KMT2E], the protein stability index was found to be 5.13 ± 0.2 under setting [1] and 5.01 ± 0.23 under setting [2].
KNNLSFIETSALDSTNVEEAFKNI [RAB11B]: the protein stability index amounted to 4.33 ± 0.2 under setting [1] and 4.33 ± 0.3 under setting [2].
As for CHEDVEALAAIYEEKEAWYREESD [DAPK3], the protein stability index is 5.1 ± 0.22 under setting [1] and 5.12 ± 0.62 under setting [2].
On the same counts, the results for WELVVLGKLKWNLAAVTPHDFIEH [CCND2] are 2.7 ± 0.71 and 2.62 ± 0.39.
Regarding QALRQMNEGAIDCVNYEGQSAYDV [DLC1], the protein stability index amounted to 4.41 ± 0.22 under setting [1] and 4.39 ± 0.1 under setting [2].
For DQKERCIIVRTTNKKYYKKFSIPD [DPCD], the protein stability index came to 2.95 ± 0.21 under setting [1] and 3.06 ± 0.27 under setting [2].
In the same order, the values of DRETQEGKPPTAHLDRTSVSSLSE [ELOA2] are 5.37 ± 0.34 and 5.42 ± 0.21.
The sequence IISGVSKVPIAQDELALSLGYAAS [C2CD2L] gave a protein stability index under setting [1] of 2.58 ± 0.3 and a protein stability index under setting [2] of 2.55 ± 0.32.
Consider PEDRPSLDDIIRHDFFLQGFTPDR [PLK2], for which the protein stability index was 4.35 ± 0.12 under setting [1] and 4.27 ± 0.29 under setting [2].
